Reference: article PMC7619409 (Molecular cell, 2024)

T1: Arp6 subunit (yeast, UniProt Q12509 1-438)
T1 construct: Stood in the assay as part of m1
T1 sequence: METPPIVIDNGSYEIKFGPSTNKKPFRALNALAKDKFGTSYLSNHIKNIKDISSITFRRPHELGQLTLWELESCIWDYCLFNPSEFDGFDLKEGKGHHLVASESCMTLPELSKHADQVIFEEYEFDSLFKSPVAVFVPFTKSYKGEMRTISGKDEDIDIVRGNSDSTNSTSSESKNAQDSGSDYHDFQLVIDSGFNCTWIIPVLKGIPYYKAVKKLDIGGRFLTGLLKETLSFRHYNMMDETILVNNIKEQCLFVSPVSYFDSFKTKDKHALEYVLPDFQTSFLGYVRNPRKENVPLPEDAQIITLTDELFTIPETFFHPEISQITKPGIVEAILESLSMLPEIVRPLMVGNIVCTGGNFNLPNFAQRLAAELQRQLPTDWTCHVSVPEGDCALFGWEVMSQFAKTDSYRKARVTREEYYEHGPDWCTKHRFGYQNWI

B1: Swc5 subunit (natural protein, yeast)
chain: MPEVETKIIPNEKEDEDEDGYIEEEDEDFQPEKDKLGGGSDDSDASDGGDDYDDGVNRDKGRNKVDYSRIESESGGLIKTRRARQAEEEYAKTHKYESLTVESIPAKVNSIWEELQEASKNRLLSSSGKVGSVLDGSKEARSTTAAQQEDKILIERNYKFAGETVHEKKWVSRSSAEGQEYLNSLKFKQQAPAAPVQLEKAVRTKSNESRQHLRRPLKRPPLLEQIISGGLRPKLTTLEKSQLDWASYVDRAGLNDELVLHNKDGFLARQEFLQRVGSAEDERYKELRRQQLAQQLQQDSEAS
notes: residues 196-303 built in the structure; Stood in the assay as part of m1
B2: Swc6 subunit (natural protein, yeast)
chain: MKALVEEIDKKTYNPDIYFTSLDPQARRYTSKKINKQGTISTSRPVKRINYSLADLEARLYTSRSEGDGNSISRQDDRNSKNSHSFEERYTQQEILQSDRRFMELNTENFSDLPNVPTLLSDLTGVPRDRIESTTKPISQTSDGLSALMGGSSFVKEHSKYGHGWVLKPETLREIQLSYKSTKLPKPKRKNTNRIVALKKVLSSKRNLHSFLDSALLNLMDKNVIYHNVYNKRYFKVLPLITTCSICGGYDSISSCVNCGNKICSVSCFKLHNETRCRNR
notes: Stood in the assay as part of m1

Key:
Assay in all cases: cryo-EM structure; SWR1-hexasome complex, 3.5 Å; SWR1 premixed 1:1 with hexasome, 1 mM ADP:BeF, 25 mM HEPES pH 7.5, 50 mM NaCl, 30°C 10 min, glycerol gradient, no crosslinking
Details in all cases: both partners purified
[1] = molecular target: S. cerevisiae histone H4 (S. cerevisiae, UniProt P02309 1-103)
[2] = molecular target: T2, Swr1 subunit (yeast, UniProt Q05471 1-1514)
T2 construct: Stood in the assay as part of m1; also called Swr1 motor domains
T2 sequence (Q05471 whole entry, the tested form may be a part): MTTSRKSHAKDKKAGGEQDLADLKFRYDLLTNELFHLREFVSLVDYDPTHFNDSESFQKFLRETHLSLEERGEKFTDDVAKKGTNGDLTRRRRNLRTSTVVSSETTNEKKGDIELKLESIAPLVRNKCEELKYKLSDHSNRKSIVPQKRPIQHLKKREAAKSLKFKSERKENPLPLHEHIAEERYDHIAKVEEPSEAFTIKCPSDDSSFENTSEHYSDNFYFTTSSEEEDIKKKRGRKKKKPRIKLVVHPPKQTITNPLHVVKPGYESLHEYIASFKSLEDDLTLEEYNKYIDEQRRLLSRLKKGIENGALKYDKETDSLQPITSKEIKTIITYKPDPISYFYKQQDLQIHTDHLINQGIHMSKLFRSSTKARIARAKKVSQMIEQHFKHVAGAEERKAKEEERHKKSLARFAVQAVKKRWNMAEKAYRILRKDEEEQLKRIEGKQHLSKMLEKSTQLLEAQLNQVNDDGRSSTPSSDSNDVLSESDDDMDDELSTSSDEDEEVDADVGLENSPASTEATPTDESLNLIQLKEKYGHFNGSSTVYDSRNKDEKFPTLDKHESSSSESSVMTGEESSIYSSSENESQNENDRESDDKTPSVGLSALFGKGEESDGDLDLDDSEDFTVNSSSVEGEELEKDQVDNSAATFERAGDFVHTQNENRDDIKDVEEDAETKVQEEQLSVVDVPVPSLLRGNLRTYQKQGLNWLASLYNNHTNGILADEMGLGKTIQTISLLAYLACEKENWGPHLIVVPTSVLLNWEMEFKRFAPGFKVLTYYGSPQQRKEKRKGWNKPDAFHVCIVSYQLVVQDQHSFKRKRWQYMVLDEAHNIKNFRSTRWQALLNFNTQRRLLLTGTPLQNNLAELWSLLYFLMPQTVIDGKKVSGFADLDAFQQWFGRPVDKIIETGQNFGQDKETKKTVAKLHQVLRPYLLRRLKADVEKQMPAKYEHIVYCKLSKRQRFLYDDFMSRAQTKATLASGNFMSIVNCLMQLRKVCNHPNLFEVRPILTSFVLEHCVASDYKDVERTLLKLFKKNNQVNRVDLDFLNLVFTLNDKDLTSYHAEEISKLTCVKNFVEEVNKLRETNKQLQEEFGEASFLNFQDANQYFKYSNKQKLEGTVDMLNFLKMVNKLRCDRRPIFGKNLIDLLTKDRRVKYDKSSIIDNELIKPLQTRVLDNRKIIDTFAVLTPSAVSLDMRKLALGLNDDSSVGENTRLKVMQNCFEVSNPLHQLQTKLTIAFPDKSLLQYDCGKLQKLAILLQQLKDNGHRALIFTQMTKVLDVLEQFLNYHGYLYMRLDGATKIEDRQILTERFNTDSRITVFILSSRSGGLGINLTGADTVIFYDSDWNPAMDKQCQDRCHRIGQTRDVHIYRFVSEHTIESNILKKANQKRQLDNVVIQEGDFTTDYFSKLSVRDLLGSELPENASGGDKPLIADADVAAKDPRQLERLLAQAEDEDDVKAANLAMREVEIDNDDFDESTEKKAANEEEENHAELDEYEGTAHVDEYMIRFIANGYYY

[3] = molecular target: T1, Arp6 subunit

Binder | binding result [1] | binding result [2] | binding result [3]
B1 | binds | binds | –
B2 | – | – | binds
